Laboratory results reported in article PMC4394351.

Molecular target: GFP-tagged human PPP1R15A (GFP-hR15A) (human) (UniProt O75807)
Assay: co-IP; as a5, then three washes in GFP-Trap lysis buffer with additional NaCl; 350 mM salt

Chain of UniProt O75807 (O75807 whole entry): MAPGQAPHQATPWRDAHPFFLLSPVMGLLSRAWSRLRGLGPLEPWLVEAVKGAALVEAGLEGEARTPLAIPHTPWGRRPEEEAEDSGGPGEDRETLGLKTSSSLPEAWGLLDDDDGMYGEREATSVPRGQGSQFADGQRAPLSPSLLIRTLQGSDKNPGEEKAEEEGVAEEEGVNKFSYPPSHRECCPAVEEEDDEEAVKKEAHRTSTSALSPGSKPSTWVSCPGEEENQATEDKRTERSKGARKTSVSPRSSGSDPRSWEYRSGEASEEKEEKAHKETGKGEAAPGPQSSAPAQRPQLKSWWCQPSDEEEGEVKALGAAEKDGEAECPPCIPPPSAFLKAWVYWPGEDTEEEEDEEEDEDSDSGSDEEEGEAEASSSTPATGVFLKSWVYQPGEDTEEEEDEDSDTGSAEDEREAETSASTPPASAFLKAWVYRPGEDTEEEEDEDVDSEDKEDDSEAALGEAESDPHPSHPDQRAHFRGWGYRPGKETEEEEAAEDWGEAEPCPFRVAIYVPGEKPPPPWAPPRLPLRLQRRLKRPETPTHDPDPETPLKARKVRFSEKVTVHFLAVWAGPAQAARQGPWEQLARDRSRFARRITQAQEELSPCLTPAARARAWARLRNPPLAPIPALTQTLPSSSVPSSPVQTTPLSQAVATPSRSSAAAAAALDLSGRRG

actin (endogenous, HEK293T cells) (from UniProt P60709 1-375) (natural protein)
percent of the actin bound at 150 mM salt that was lost at 350 mM: 75%
